Data published in paper PMC9482650, “Quantitative fragmentomics allow affinity mapping of interactomes” (Nature Communications, 2022).

T1: PCLO, Q9Y6V0
T1 sequence (Q9Y6V0 4491-4600, limits assumed, looked up): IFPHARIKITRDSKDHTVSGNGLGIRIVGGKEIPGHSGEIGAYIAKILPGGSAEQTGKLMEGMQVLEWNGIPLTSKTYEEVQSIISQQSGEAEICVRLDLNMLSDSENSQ

T2: PDZRN3_1, Q9UPQ7
T2 sequence (Q9UPQ7 244-349, limits assumed, looked up): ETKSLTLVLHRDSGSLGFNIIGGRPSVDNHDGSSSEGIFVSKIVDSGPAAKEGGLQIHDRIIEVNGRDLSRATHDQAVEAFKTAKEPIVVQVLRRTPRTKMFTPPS

T3: MPP7, Q5T2T1
T3 sequence (Q5T2T1 134-230, limits assumed, looked up): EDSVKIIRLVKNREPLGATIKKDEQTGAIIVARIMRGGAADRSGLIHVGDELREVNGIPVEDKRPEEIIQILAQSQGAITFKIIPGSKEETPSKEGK

T4: LIN7A, O14910
T4 sequence (O14910 103-200, limits assumed, looked up): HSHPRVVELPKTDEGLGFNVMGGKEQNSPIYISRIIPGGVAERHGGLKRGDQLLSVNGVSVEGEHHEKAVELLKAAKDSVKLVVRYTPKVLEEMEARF

T5: MPP6, Q9NZW5
T5 sequence (Q9NZW5 125-219, limits assumed, looked up): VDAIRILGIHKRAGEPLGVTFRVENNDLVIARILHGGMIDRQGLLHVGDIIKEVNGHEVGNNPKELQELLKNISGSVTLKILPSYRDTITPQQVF

T6: SYNJ2BP, P57105
T6 sequence (P57105 8-110, limits assumed, looked up): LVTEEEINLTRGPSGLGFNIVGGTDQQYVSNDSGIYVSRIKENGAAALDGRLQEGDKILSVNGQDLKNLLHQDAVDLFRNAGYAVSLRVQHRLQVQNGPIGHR

T7: PTPN13_1, Q12923
T7 sequence (Q12923 1088-1188, limits assumed, looked up): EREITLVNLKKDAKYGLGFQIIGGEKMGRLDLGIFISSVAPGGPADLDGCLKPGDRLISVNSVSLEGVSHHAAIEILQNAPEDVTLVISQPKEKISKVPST

T8: FRMPD1, Q5SYB0
T8 sequence (Q5SYB0 52-145, limits assumed, looked up): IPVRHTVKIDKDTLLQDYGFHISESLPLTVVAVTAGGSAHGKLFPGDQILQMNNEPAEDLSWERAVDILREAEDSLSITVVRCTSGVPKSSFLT

T9: GRIP1_5, Q9Y3R0
T9 sequence (Q9Y3R0 568-668, limits assumed, looked up): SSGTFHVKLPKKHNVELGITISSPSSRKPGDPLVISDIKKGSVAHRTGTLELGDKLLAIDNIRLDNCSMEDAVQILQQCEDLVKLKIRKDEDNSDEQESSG

T10: GRIP1_7, Q9Y3R0
T10 sequence (Q9Y3R0 999-1096, limits assumed, looked up): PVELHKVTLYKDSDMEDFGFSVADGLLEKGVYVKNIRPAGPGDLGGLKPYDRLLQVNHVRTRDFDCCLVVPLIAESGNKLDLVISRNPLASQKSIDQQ

T11: ARHGAP21, Q5T5U3
T11 sequence (Q5T5U3 45-169, limits assumed, looked up): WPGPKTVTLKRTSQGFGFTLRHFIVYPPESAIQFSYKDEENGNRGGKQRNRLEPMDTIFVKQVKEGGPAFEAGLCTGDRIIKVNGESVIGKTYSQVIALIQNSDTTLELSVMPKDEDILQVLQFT


Key:
Assay in all cases: holdup assay
Set-up in all cases: key: below the threshold = too weak to quantify, mostly under pKd 3.1 to 4
Details in all cases: plain residues with an end cap or a label only (N-terminal biotin on a linker: ado-ado)
SCRIB_2, Q14160 = molecular target: SCRIB_2, Q14160
Sequence of SCRIB_2, Q14160 (Q14160 857-960): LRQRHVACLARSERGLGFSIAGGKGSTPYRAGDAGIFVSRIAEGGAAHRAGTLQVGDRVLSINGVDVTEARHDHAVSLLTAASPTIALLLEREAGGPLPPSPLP

PCLO, Q9Y6V0 = molecular target: T1, PCLO, Q9Y6V0
PDZRN3_1, Q9UPQ7 = molecular target: T2, PDZRN3_1, Q9UPQ7
MAGI2_3, Q86UL8 = molecular target: MAGI2_3, Q86UL8
Sequence of MAGI2_3, Q86UL8 (Q86UL8 600-682): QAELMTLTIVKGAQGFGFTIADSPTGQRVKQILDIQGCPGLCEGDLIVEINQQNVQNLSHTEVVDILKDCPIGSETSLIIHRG

Inadl_4, Q8NI35 = molecular target: Inadl_4, Q8NI35
Sequence of Inadl_4, Q8NI35 (Q8NI35 547-651): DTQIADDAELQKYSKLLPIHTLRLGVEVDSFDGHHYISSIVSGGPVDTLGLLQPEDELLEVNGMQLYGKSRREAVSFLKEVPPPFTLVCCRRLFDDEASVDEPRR

MPP7, Q5T2T1 = molecular target: T3, MPP7, Q5T2T1
LIN7A, O14910 = molecular target: T4, LIN7A, O14910
GRIP2_6, Q9C0E4 = molecular target: GRIP2_6, Q9C0E4
Sequence of GRIP2_6, Q9C0E4 (Q9C0E4 648-740): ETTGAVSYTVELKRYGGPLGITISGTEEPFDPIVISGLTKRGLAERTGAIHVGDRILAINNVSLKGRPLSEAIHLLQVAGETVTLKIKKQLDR

MAGI1_1, Q96QZ7 = molecular target: MAGI1_1, Q96QZ7
Sequence of MAGI1_1, Q96QZ7 (Q96QZ7 1-106): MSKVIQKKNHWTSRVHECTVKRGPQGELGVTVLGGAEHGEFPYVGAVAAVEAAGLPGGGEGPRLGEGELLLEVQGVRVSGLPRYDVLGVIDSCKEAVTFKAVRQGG

GRID2IP_1, A4D2P6 = molecular target: GRID2IP_1, A4D2P6
Sequence of GRID2IP_1, A4D2P6 (A4D2P6 1-87): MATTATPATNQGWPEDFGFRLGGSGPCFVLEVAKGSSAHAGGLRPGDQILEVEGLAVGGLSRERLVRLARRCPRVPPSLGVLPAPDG

MPP6, Q9NZW5 = molecular target: T5, MPP6, Q9NZW5
FRMPD4, Q14CM0 = molecular target: FRMPD4, Q14CM0
Sequence of FRMPD4, Q14CM0 (Q14CM0 67-160): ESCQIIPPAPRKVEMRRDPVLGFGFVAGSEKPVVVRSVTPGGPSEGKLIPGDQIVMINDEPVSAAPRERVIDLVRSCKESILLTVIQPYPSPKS

MAGI2_5, Q86UL8 = molecular target: MAGI2_5, Q86UL8
Sequence of MAGI2_5, Q86UL8 (Q86UL8 915-1017): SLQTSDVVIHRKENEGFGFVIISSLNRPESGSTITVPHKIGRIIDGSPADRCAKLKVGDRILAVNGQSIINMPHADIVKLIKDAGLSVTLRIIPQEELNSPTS

SYNJ2BP, P57105 = molecular target: T6, SYNJ2BP, P57105
PTPN13_1, Q12923 = molecular target: T7, PTPN13_1, Q12923
FRMPD1, Q5SYB0 = molecular target: T8, FRMPD1, Q5SYB0
DLG4_1, P78352 = molecular target: DLG4_1, P78352
Sequence of DLG4_1, P78352 (P78352 62-152): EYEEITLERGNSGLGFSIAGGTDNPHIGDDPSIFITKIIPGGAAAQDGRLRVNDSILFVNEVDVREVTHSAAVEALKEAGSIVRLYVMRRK

MAST2, Q6P0Q8 = molecular target: MAST2, Q6P0Q8
Sequence of MAST2, Q6P0Q8 (Q6P0Q8 1099-1202): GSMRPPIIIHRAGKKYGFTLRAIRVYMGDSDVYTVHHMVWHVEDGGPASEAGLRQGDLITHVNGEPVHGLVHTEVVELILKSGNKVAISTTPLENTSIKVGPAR

NHERF4_2, Q86UT5 = molecular target: NHERF4_2, Q86UT5
Sequence of NHERF4_2, Q86UT5 (Q86UT5 220-308): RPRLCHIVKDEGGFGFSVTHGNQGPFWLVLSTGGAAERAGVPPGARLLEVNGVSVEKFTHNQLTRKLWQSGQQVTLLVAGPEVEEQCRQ

GRIP2_3, Q9C0E4 = molecular target: GRIP2_3, Q9C0E4
Sequence of GRIP2_3, Q9C0E4 (Q9C0E4 238-339): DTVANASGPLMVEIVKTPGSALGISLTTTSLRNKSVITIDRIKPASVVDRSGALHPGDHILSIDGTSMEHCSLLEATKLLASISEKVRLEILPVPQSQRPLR

GRIP1_5, Q9Y3R0 = molecular target: T9, GRIP1_5, Q9Y3R0
HTRA1, Q92743 = molecular target: HTRA1, Q92743
Sequence of HTRA1, Q92743 (Q92743 360-477): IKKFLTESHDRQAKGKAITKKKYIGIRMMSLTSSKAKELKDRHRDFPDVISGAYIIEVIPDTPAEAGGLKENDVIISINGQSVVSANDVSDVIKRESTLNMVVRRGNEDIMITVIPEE

GRASP, Q7Z6J2 = molecular target: GRASP, Q7Z6J2
Sequence of GRASP, Q7Z6J2 (Q7Z6J2 96-193): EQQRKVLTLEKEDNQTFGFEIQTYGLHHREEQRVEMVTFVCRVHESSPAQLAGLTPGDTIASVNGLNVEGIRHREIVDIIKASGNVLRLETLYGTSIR

MAGI1_2, Q96QZ7 = molecular target: MAGI1_2, Q96QZ7
Sequence of MAGI1_2, Q96QZ7 (Q96QZ7 456-580): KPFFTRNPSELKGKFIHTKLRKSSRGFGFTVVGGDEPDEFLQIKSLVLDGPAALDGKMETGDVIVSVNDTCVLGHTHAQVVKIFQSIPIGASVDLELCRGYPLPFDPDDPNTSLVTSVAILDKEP

GRIP1_7, Q9Y3R0 = molecular target: T10, GRIP1_7, Q9Y3R0
Inadl_3, Q8NI35 = molecular target: Inadl_3, Q8NI35
Sequence of Inadl_3, Q8NI35 (Q8NI35 359-469): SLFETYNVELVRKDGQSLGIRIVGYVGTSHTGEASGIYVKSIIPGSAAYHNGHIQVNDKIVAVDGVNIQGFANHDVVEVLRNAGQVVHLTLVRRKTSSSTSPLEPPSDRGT

ARHGAP21, Q5T5U3 = molecular target: T11, ARHGAP21, Q5T5U3

Binder	pKd (SCRIB_2, Q14160)	pKd (PCLO, Q9Y6V0)	pKd (PDZRN3_1, Q9UPQ7)	pKd (MAGI2_3, Q86UL8)	pKd (Inadl_4, Q8NI35)	pKd (MPP7, Q5T2T1)	pKd (LIN7A, O14910)	pKd (GRIP2_6, Q9C0E4)	pKd (MAGI1_1, Q96QZ7)	pKd (GRID2IP_1, A4D2P6)	pKd (MPP6, Q9NZW5)	pKd (FRMPD4, Q14CM0)	pKd (MAGI2_5, Q86UL8)	pKd (SYNJ2BP, P57105)	pKd (PTPN13_1, Q12923)	pKd (FRMPD1, Q5SYB0)	pKd (DLG4_1, P78352)	pKd (MAST2, Q6P0Q8)	pKd (NHERF4_2, Q86UT5)	pKd (GRIP2_3, Q9C0E4)	also measured
QSARLWETSI [ADAM22, Q9P0K1]	4.71	below the threshold	4.87	below the threshold	below the threshold	4.22	3.69	3.84	below the threshold	below the threshold	below the threshold	below the threshold	3.7	5.2	below the threshold	below the threshold	3.92	5.62	below the threshold	below the threshold	pKd (GRIP1_5, Q9Y3R0): below the threshold; pKd (HTRA1, Q92743): 3.92; pKd (GRASP, Q7Z6J2): 4.17; pKd (MAGI1_2, Q96QZ7): below the threshold; pKd (GRIP1_7, Q9Y3R0): below the threshold; pKd (Inadl_3, Q8NI35): 4.92; pKd (ARHGAP21, Q5T5U3): below the threshold
SAAKVLTSMC [GHRHR, Q02643]	below the threshold	below the threshold	below the threshold	below the threshold	below the threshold	below the threshold	below the threshold	below the threshold	below the threshold	below the threshold	below the threshold	below the threshold	4.36	3.59	below the threshold	below the threshold	below the threshold	4.15	below the threshold	below the threshold	pKd (GRIP1_5, Q9Y3R0): below the threshold; pKd (HTRA1, Q92743): 3.55; pKd (GRASP, Q7Z6J2): 4.32; pKd (MAGI1_2, Q96QZ7): below the threshold; pKd (GRIP1_7, Q9Y3R0): below the threshold; pKd (Inadl_3, Q8NI35): below the threshold; pKd (ARHGAP21, Q5T5U3): below the threshold
MLSKQSESAI [FLVCR1, Q9Y5Y0]	3.55	below the threshold	3.78	below the threshold	below the threshold	below the threshold	below the threshold	below the threshold	below the threshold	below the threshold	below the threshold	below the threshold	below the threshold	4.52	below the threshold	below the threshold	below the threshold	4.58	below the threshold	below the threshold	pKd (GRIP1_5, Q9Y3R0): below the threshold; pKd (HTRA1, Q92743): below the threshold; pKd (GRASP, Q7Z6J2): below the threshold; pKd (MAGI1_2, Q96QZ7): below the threshold; pKd (GRIP1_7, Q9Y3R0): below the threshold; pKd (Inadl_3, Q8NI35): below the threshold; pKd (ARHGAP21, Q5T5U3): 4.1

More lines, main results first:

pKd (SCRIB_2, Q14160)	pKd (PCLO, Q9Y6V0)	pKd (PDZRN3_1, Q9UPQ7)	pKd (MAGI2_3, Q86UL8)	pKd (Inadl_4, Q8NI35)	pKd (MPP7, Q5T2T1)	pKd (LIN7A, O14910)	pKd (GRIP2_6, Q9C0E4)	pKd (MAGI1_1, Q96QZ7)	pKd (GRID2IP_1, A4D2P6)	pKd (MPP6, Q9NZW5)	pKd (FRMPD4, Q14CM0)	pKd (MAGI2_5, Q86UL8)	pKd (SYNJ2BP, P57105)	pKd (PTPN13_1, Q12923)	pKd (FRMPD1, Q5SYB0)	pKd (DLG4_1, P78352)	pKd (MAST2, Q6P0Q8)	pKd (NHERF4_2, Q86UT5)	pKd (GRIP2_3, Q9C0E4)	Binder	also measured
4.12	below the threshold	below the threshold	below the threshold	below the threshold	below the threshold	3.77	below the threshold	below the threshold	below the threshold	below the threshold	below the threshold	below the threshold	below the threshold	below the threshold	below the threshold	below the threshold	5.21	below the threshold	below the threshold	TASPAKETSF [SLC2A7, Q6PXP3]	pKd (GRIP1_5, Q9Y3R0): below the threshold; pKd (HTRA1, Q92743): below the threshold; pKd (GRASP, Q7Z6J2): below the threshold; pKd (MAGI1_2, Q96QZ7): below the threshold; pKd (GRIP1_7, Q9Y3R0): below the threshold; pKd (Inadl_3, Q8NI35): below the threshold; pKd (ARHGAP21, Q5T5U3): below the threshold
below the threshold	below the threshold	below the threshold	below the threshold	below the threshold	below the threshold	below the threshold	below the threshold	below the threshold	below the threshold	3.51	below the threshold	below the threshold	below the threshold	below the threshold	below the threshold	below the threshold	3.69	below the threshold	below the threshold	RKPKPSSSCC [RAB9A, P51151]	pKd (GRIP1_5, Q9Y3R0): below the threshold; pKd (HTRA1, Q92743): below the threshold; pKd (GRASP, Q7Z6J2): below the threshold; pKd (MAGI1_2, Q96QZ7): 3.64; pKd (GRIP1_7, Q9Y3R0): below the threshold; pKd (Inadl_3, Q8NI35): below the threshold; pKd (ARHGAP21, Q5T5U3): below the threshold
